According to patent publication US20220332804A1 (CSL INNOVATION, published 2022):

Assays:
Experiment in all cases: SPR, antibody captured, C2 as analyte;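 further: biacore SPR at 37 °C, anti-C2 mAbs captured via goat anti-human IgG on CM5 chips, double-referenced sensorgrams fit to a 1:1 kinetic or steady-state model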
human C2 P704A = biological target: T1, human C2 P704A (human, UniProt P06681 21-752)
T1 sequence: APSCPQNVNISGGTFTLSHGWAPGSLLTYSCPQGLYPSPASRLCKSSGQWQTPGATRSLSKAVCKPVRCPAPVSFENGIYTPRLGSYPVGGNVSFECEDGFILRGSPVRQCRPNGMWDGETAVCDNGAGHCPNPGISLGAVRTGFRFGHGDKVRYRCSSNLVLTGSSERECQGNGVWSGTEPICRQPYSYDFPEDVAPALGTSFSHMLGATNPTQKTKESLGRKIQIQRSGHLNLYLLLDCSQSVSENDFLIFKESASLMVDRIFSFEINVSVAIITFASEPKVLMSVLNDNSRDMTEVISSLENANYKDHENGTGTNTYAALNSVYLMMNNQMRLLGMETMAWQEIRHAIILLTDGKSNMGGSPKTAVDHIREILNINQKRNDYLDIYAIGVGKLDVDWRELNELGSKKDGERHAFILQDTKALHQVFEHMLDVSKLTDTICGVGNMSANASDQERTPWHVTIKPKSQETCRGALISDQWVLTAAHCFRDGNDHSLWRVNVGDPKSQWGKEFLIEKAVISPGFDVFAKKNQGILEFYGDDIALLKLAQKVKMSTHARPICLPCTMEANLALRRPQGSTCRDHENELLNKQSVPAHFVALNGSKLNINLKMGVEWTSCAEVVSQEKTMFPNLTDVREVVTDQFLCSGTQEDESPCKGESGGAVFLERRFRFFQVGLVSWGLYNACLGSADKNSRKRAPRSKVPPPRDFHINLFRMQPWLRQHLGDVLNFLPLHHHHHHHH

human C2 L279A = biological target: T2, human C2 L279A (human, UniProt P06681 21-752)
T2 sequence: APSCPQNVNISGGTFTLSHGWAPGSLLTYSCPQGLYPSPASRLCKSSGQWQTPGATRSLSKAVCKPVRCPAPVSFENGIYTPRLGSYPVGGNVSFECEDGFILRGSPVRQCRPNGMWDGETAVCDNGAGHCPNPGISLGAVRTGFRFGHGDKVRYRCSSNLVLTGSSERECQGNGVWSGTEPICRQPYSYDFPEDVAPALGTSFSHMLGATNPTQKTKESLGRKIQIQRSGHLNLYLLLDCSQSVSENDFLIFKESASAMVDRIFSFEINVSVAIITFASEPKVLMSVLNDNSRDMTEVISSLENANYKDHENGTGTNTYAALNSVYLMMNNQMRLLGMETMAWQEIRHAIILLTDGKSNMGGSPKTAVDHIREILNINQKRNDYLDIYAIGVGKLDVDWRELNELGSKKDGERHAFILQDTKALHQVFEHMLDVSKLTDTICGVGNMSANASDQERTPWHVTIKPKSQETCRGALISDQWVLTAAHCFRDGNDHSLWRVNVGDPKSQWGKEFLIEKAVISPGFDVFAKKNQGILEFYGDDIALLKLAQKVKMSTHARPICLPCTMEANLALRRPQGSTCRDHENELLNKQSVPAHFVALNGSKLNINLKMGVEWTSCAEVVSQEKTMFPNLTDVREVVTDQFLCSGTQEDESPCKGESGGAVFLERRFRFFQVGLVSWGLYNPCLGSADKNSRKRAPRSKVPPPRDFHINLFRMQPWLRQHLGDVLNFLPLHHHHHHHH

human C2 N327A = biological target: T3, human C2 N327A (human, UniProt P06681 21-752)
T3 sequence: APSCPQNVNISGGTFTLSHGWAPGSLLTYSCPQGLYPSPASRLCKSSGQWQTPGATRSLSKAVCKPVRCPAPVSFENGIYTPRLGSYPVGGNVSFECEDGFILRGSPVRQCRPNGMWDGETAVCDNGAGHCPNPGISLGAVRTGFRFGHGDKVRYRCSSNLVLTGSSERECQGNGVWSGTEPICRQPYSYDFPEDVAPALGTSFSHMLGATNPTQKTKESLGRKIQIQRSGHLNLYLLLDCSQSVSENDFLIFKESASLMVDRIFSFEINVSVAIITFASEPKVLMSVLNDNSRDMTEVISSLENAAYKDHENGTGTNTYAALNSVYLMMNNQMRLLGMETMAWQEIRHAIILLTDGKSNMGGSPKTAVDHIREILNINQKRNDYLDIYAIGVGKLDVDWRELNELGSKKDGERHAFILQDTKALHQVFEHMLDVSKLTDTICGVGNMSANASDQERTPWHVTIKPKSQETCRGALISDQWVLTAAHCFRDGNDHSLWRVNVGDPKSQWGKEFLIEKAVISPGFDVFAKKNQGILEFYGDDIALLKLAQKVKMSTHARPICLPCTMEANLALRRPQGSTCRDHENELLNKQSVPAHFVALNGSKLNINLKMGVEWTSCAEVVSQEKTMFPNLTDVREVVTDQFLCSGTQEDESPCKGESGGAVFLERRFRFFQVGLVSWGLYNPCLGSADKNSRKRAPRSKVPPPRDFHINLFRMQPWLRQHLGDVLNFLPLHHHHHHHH

human C2 A470S = biological target: T4, human C2 A470S (human, UniProt P06681 21-752)
T4 sequence: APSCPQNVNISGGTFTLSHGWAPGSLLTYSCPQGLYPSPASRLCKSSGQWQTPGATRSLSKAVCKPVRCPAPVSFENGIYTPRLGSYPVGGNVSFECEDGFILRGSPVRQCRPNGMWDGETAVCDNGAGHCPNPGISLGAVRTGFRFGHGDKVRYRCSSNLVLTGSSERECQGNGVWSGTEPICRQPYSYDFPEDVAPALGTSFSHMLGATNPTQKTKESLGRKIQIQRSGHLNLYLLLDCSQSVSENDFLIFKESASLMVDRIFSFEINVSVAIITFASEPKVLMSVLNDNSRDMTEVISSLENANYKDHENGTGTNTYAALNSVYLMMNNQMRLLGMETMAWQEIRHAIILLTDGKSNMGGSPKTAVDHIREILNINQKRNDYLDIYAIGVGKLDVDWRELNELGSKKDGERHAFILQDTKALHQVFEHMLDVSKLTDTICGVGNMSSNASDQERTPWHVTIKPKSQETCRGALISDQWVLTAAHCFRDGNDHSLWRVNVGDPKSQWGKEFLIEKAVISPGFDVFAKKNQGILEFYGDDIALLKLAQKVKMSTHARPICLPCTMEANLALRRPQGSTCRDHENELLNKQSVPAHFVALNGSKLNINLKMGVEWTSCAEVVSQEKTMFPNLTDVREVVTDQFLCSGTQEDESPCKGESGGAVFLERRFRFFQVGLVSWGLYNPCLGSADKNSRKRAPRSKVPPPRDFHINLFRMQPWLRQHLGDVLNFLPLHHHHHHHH

B1: RF16-226 (antibody, human IgG4 S228P, lambda)
heavy: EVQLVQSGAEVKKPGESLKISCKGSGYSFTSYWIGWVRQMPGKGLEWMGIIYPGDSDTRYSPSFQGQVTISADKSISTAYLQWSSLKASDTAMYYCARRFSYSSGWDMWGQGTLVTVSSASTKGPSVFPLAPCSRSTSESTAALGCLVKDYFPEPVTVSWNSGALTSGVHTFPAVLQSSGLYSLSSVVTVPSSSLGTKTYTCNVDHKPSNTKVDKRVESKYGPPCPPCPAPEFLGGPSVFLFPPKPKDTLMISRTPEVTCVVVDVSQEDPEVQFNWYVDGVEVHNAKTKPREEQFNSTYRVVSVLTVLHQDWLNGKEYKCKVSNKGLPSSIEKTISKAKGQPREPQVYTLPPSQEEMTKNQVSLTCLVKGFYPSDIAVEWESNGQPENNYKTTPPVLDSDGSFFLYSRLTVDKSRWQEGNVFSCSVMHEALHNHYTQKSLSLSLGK
light: SYELTQPPSVSVSPGQTARITCSGDALTSKYVAWYQQKSGLAPLLVIYEDTRRPSGIPAKFSGSSSGSVATLTISGAHGDDEADYYCYSTDASGHQRVFGGGTKLTVLSQPKAAPSVTLFPPSSEELQANKATLVCLISDFYPGAVTVAWKADGSPVKAGVETTKPSKQSNNKYAASSYLSLTPEQWKSHRSYSCQVTHEGSTVEKTVAPTECS
notes: pH-dependent anti-C2 antibody from a phage display library; also called WT
For B1, the Kd (human C2 P704A) was 120 nM, the Kd (human C2 L279A) was 54.4 nM and the Kd (human C2 N327A) was 67.4 nM. It also gave a Kd (human C2 A470S) of 7.8 nM.
